# Literature values, collected in article PMC2749146.
# System: Cys
# Assay: UV-vis
# Conditions: Reduced; the protein unfolds below pH 3, so deprotonation and unfolding overlap.
substance,measurement,value
DsbA (EcDsbA) (Escherichia coli),pKa,∼3.5
